The source of these data is PMC5655127.

The assay concerns the target KpBest^ΔC11 L177T (Klebsiella pneumoniae). Put plainly: crystal structure; KpBest^ΔC11 L177T, sitting-drop vapor diffusion at 20°C, 0.05 M zinc acetate, 6% ethylene glycol, 0.1 M sodium cacodylate pH 6.0, 6.6% PEG 8000; solved to 3.1 Å by molecular replacement with 4WD8.

One may read the stoichiometry N as the number of molecules, sites or subunits per partner or assembly.

Turning to KpBest^ΔC11 L177T (natural protein), the stoichiometry N stood at 5.
